# Results reported in patent US20090149343.
# Target: 48 discrete histone H3 peptides containing a wide range of histone modifications at defined residues (micro-array bound)
protein,measurement,value
recombinant human histone methyl-transferase SET 7/9 (protein) MDSDDEMVEEAVEGHLDDDGLPHGFCTVTYSSTDRFEGNFVHGEKNGRGKFFFFDGSTLEGYYVDDALQGQGVYTYEDGGVLQGTYVDGELNGPAQEYDTDGRLIFKGQYKDNIRHGVCWIYYPDGGSLVGEVNEDGEMTGEKIAYVYPDERTALYGKFIDGEMIEGKLATLMSTEEGRPHFELMPGNSVYHFDKSTSSCISTNALLPDPYESERVYVAESLISSAGEGLFSKVAVGPNTVMSFYNGVRITHQEVDSRDWALNGNTLSLDEETVIDVPEPYNHVSKYCASLGHKANHSFTPNCIYDMFVHPRFGPIKCIRTLRAVEADEELTVAYGYDHSPPGKSGPEAPEWYQVELKAFQATQQK,"SET 7/9 dependent methylation of micro-array bound histone peptides, detected by anti-H3K4me1 antibody",also detects a large number of newly created additional sites containing this epitope after HMTase incubation
